Changes are numbered by the printed parent chain. Read-outs that look alike come from different tables or passages of the source.
T1: FimGNTEH (E. coli, UniProt P08190 24-37)
T1 sequence (P08190 whole entry, looked up): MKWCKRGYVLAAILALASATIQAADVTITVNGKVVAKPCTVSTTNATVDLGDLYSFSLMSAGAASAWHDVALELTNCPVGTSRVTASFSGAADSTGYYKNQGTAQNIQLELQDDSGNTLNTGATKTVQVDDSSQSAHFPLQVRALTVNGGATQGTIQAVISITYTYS

T2: FimGnteH (E. coli, UniProt P08190 24-37)
T2 sequence (P08190 whole entry, looked up): T1 sequence (P08190 whole entry, looked up)

T3: E. coli FimH lectin domain truncate (UT189) (E. coli (UT189))
T3 chain: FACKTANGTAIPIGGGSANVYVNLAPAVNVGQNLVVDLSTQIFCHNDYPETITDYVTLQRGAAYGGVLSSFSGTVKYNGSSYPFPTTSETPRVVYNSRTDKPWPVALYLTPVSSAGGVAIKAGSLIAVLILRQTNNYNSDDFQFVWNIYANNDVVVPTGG

T4: Ec FmlHLD
T4 chain: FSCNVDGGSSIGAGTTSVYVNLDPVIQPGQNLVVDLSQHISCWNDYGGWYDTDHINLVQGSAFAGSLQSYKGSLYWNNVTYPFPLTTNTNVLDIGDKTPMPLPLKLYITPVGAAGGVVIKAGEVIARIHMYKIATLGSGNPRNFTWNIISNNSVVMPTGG

T5: Kp FimHLD
T5 chain: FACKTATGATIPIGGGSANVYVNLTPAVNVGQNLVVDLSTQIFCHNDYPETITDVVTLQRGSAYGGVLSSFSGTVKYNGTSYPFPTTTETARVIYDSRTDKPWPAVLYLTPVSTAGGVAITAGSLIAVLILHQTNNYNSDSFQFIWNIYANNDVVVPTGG

B1: Kp2 2C07 (Fab, V domains shown)
VH: EVKLVESGEGLVKPGGSLKLSCAASGFTFSSYAMSWVRQTPEKRLDWVAYISSGGDHIYYADTVKGRFTISRDNARNTLYLQMSSLKSEDTAMYYCTRDTGYYVSRYFDVWGTGTTVTVSS
VL: DIVMTQSQKFMSTSVGDRVSVTCKASQNVVTNVAWYQQKSGQSPKVVIYSASFRSSGVPDRFTGSGSGTDFTLTISNVQSEDLAEYFCHQYNSHPLTFGGGTKLEIKR
B2: Kp2 2C07 Fab (Fab, V domains shown)
VH: B1 VH
VL: B1 VL
B3: Kp 1A09 (antibody, V domains shown)
VH: EVQLQQPGAELVKPGASVKLSCKASGYTFTSYWMHWVKQRPGQGLEWIGLIHPNSGSTYYNEKFKNKATLTVDKSSSTAYMQLSSLTSEDSAVYYCARWDDSYWYFKVWGTGTTVTVSS
VL: QIVLTQSPAILSASPGEKVTMTCRASSSVSYMHWYQQKPGSSPKPWIYATSNLASGVPARFSGSGSGTSYSLTISRVEAEDAATYYCQQWSSNPYTFGGGTKLEIKR
B4: Kp 1E07 (antibody, V domains shown)
VH: B3 VH
VL: B3 VL
B5: FimLD (other)
chain: T3 chain
B6: Kp1 2E02 (antibody, V domains shown)
VH: EVQLQQSGPVLVKPGPSVKISCKASGFTFTDYYIHWVKRSHGKSLEWIGLVSPYNGGTFYNQKFKGKATLTVDTSSNTAYMELTSLTSEDSAVYYCARLGVNWYFDVWGTGTTVTVSS
VL: QIVLTQSPALMAASPGEKVTLTCSVSSSISSSTLHWYQQKSETSPKPWIYGTSNLASGVPVRFSGSGSGTSYSLTISSMEAEDAATYYCQQWSTYPYTFGGGTKLEIKR
B7: Kp1 1B03 (antibody, V domains shown)
VH: EVQLQQSGAELVKPGASVKLSCKASGYTFTSYWMHWVQQRPGQGLEWIGLIHPIGGGTHYNEKFKNKATLTVDKSSSTAYMQLSSLTSEDSAVYYCARLGTGPYYFDYWGQGTTLTVSS
VL: B6 VL with L21I, H35D, I49V, T94S, Y97W
B8: Kp 2D10 (antibody, V domains shown)
VH: EVQLQQSGAELVKPGASVKLSCKASGYTFTTYWMHWMKQWPGQGLEWIGLIHPNSGSTYYNEKFKSKATLTVDKSSSTAYMQLSSLTSEDSAVYYCARFEELWGGYWYFDVWGTGTTVTVSS
VL: B6 VL with L21I, T33N, T94S
B9: Ec1 F7 Fab (Fab, V domains shown)
VH: EVQLQQPGPVLVKPGPSVKISCKASGFTFTDYFIHWVKQSHGKSLEWIGLVSPYNGGTYYNQQFKGKATLTVDTSSSTAYMDLNSLTSEDSAVYYCTRLLRGYWYFDVWGTGTTVTVSS
VL: B6 VL with L21I, S30G, T33N
B10: Kp1 2H04 Fab (Fab, V domains shown)
VH: EVQLQQSGAELVKPGASVKLSCKASGYTFTSYWMHWVKQRPGQGLEWIGLIHPNSSSTYYNEKFKTRATLTVDKSSSTAYMQLSSLTSEDSAVYYCARLGYGNSYWYFDVWGTGTTVTVSS
VL: B6 VL with L21I, T33N, V61I, M79L, S93R, T94S, Y97W
B11: Ec H9 (antibody, V domains shown)
VH: B9 VH with P7S, I34V, T97A
VL: B6 VL with L21I, S64G
B12: Ec1 F7 (Fab, V domains shown)
VH: B9 VH
VL: B6 VL with L21I, S30G, T33N
B13: Kp1 1A02 (antibody, V domains shown)
VH: EVQLQQSGPVLVKPGPSMKISCKASGFTFTDYYIHWVRQSHGKSLEWIGLVSPYNGGTYYNQKFKGKATLTVDSSSSTAYMELSSLTSEDSAVYYCARLGYYGDWYYFDYWGQGTPLTVSS
VL: B6 VL with A13T, L21I, T33N, H35N, T94S
B14: Kp1 2H04 (antibody, V domains shown)
VH: B10 VH
VL: B6 VL with L21I, T33N, V61I, M79L, S93R, T94S, Y97W
B15: Kp 2H07 (antibody, V domains shown)
VH: EVQLQQSGPVLVKPGPSVNISCKASGFTFTDYYIHWVKQSHGKSLEWIGLVYPYSGGTYYNQKFKGKATLTVDASSSTAYMELGSLTSEDSAVYYCARLGDNFYYFDYWGQGTTLTVSS
VL: B6 VL with A9T, L21I, T33N, S93R, T94S

Columns and labels:
FimGNTEH [1] = biological target: T1, FimGNTEH; assay: BLI
FimGnteH [2] = biological target: T2, FimGnteH; assay: BLI
[3] = biological target: T3, E. coli FimH lectin domain truncate …; assay: BLI
[4] = biological target: T3, E. coli FimH lectin domain truncate …; assay: BLI
Ec FmlHLD = biological target: T4, Ec FmlHLD; assay: ELISA
Ec FimHLD = assay: ELISA
Kp FimHLD = biological target: T5, Kp FimHLD; assay: ELISA
Kp1 1C01 = assay: BLI
Kp1 2G02 = assay: BLI
Kp1 1A02 = assay: BLI
Ec1 H9 = assay: BLI
Kp1 2E02 = assay: BLI
Kp1 1B03 = assay: BLI
Kp1 2H07 = assay: BLI
Kp1 2E08 = assay: BLI
Kp1 2D07 = assay: BLI
Ec1 C12 = assay: BLI
[5] = biological target: T3, E. coli FimH lectin domain truncate …; assay: BLI
[6] = biological target: T3, E. coli FimH lectin domain truncate …; assay: BLI
[7] = biological target: T3, E. coli FimH lectin domain truncate …; assay: BLI

| Binder | EC50 (Ec FmlHLD) | EC50 (Ec FimHLD) | EC50 (Kp FimHLD) | also measured |
| --- | --- | --- | --- | --- |
| B1 |  |  |  | Kd (FimGNTEH [1]): 9.9 nM; Kd (FimGnteH [2]): 9.9 nM |
| B2 |  |  |  | Kd [3]: 2.8 nM; Kd [4]: 2.8 nM |
| B3 | 0.018 µg/mL | 0.0135 µg/mL | 0.0161 µg/mL |  |
| B4 | 0.0117 µg/mL | 0.0094 µg/mL | 0.0115 µg/mL |  |
| B5 |  |  |  | Kd (Kp1 1C01): 3.4 nM; koff (Kp1 2G02): 1.3e-05 s⁻¹; Kd (Kp1 1A02): 0.7 nM; Kd (Ec1 H9): 0.2 nM; Kd (Kp1 2E02): 0.4 nM; Kd (Kp1 1B03): 4.9 nM; Kd (Kp1 2H07): 1 nM; Kd (Kp1 2E08): 1 nM; Kd (Kp1 2D07): 1.5 nM; Kd (Ec1 C12): 2.7 nM |
| B6 | 0.0097 µg/mL | 0.0127 µg/mL | 0.0127 µg/mL |  |
| B7 | 3.06 µg/mL | 0.0092 µg/mL | 0.0125 µg/mL |  |
| B8 | 10.1 µg/mL | 0.0119 µg/mL | 0.0109 µg/mL |  |
| B9 |  |  |  | koff [5]: 2.2e-05 s⁻¹; koff [6]: 2.2e-05 s⁻¹ |
| B10 |  |  |  | koff [5]: 2.1e-05 s⁻¹; koff [7]: 2.1e-05 s⁻¹ |
| B11 | 0.015 µg/mL | 0.0301 µg/mL | 0.0243 µg/mL |  |
| B12 |  |  |  | Kd (FimGNTEH [1]): 0.7 nM; Kd (FimGnteH [2]): 0.7 nM |
| B13 | 2.1 µg/mL | 0.0144 µg/mL | 0.0185 µg/mL |  |
| B14 | 0.0154 µg/mL | 0.0178 µg/mL | 0.0096 µg/mL |  |
| B15 | 2.72 µg/mL | 0.0104 µg/mL | 0.0137 µg/mL |  |
